In the DeepSol protein solubility set:

experiment: soluble on expression in E. coli; label from the status in PepcDB or PDB records

Sequence | soluble on expression in E. coli
SNIEALADKVRTYLEAGQIDGFVRTLRARPEAGGKVPVFVFHPAGGSTVVYEPLLGRLPADTPMYGFERVEGSIEERAQQYVPKLIEMQGDGPYVLVGWSLGGVLAYACAIGLRRLGKDVRFVGLIDAVRAGEEIPQTKEEIRKRWDRYAAFAEKTFNVTIPAIPYEQLEELDDEGQVRFVLDAVSQSGVQIPAGIIEHQRTSYLDNRAIDTAQIQPYDGHVTLYMADRYHDDAIMFEPRYAVRQPDGGWGEYVSDLEVVPIGGEHIQAIDEPIIAKVGEHMSRA | soluble
SNILEKVVLKVLEDQQNIRLIRELLQTLYTSLCTLVQRVGKSVLVGNINMWVYRMETILHWQQQLNNIQITRPAFKGLTFTDLPLCLQLNIMQRLSDGRDLVSLGQAAPDLHVLSEDRLLWKKLCQYHFSERQIRKRLILSDKGQLDWKKMYFKLVRCYPRKEQYGDTLQLRKHCHILSWKGTDHPCTANNPESCSVSLSPQDFINLFKF | not soluble
SNPLCSRCNRVVYPTEKVNCLDKYWHKGCFSCEVCKMTLNMKNYKGFEKRPYCNAHYPKTSFTSVADTPENLRLKQQSKMQSQVLYKEEFEKNKGKGFSVVADTPELQRIKKTQDQISNIKYHEDFEKSRSGGDTPLPLTPQLNTPPAYPSSAASQNYHYEPEPVRPAAAAPPPSSGKRYRAVYDYTAADEDEVSFMDGDMIVDVQQIDEGWMYGRVERTGQQGMLPANYVEAM | soluble
SNSANAADSGTLNYEVYKYNTNDTSIANDYFNKPAKYIKKNGKLYVQITVNHSHWITGMSIEGHKENIISKNTAKDERTSEFEVSKLNGKIDGKIDVYIDEKVNGKPFKYDHHYNITYKFNGPTDVAGANAP | not soluble
SPEALRIGYQKGSIGMVLAKSHQLLEKRYPESKISWVEFPAGPQMLEALNVGSIDLGSTGDIPPIFAQAAGADLVYVGVEPPKPKAEVILVAENSPIKTVADLKGHKVAFQKGSSSHNLLLRALRQAGLKFTDIQPTYLTPADARAAFQQGNVDAWAIWDPYYSAALLQGGVRVLKDGTDLNQTGSFYLAARPYAEKNGAFIQGVLATFSEADALTRSQREQSIALLAKTMGLPAPVIASYLDHRPPTTIKPVNAEVAALQQQTADLFYENRLVPKKVDIRQRIWQPTQLEGKQLEFRVPGNENLYFQ | soluble
SPEWPPCLSVAPALVITMAAGKGAPLSPSAENRWRLSEPELGRGCKPVLLEKTNRLGPEAAVGRAGRDVGSAELALLVAPGKPRPGKPLPPKTRGEQRQSAFTELPRMKDRQVDAQAQEREHDDPTGQPGAPQLTQNIPRGPAGSKVFSVWPSGARSEQRSAFSKPTKRPAERPELTSVFPAGESADALGELSGLLNTTDLACWGRLSTPKLLVGDLWNLQALPQNAPLCSTFLGAPTLWLEHTQAQVPPPSSSSTTSWALLPPTLTSLGLSTQNWCAKCNLSFRLTSDLVFHMRSHHKKEHAGPDPHSQKRREEALACPVCQEHFRERHHLSRHMTSHS | soluble
SPGRSSSNSGSTGFISFSGVESALSSLKNFQACINSGMDTASSVALDLVESQTEVSSEYSMDKAMVEFATLDRQLNHYVKAVQSTINHVKEERPEKIPDLKLLVEKKFLALQSKNSDADFQNNEKFVQFKQQLKELKKQCGLQADREADGTEGVDEDIIVTQSQTNFTCPITKEEMKKPVKNKVCGHTYEEDAIVRMIESRQKRKKKAYCPQIGCSHTDIRKSDLIQDEALRRAIENHNKKRHRHSE | soluble
SPKRETKKIKPSQEVIKEGPFLVAIHLKGIYMSNYTNSPCAACKFLRRKCTSDCVFAPYFPPEEPTKFANVHRIFGASNVSKILHEVAPHQREDAVNSLAYEAEARLKDPVYGCVGAISVLQRQVLRLQRELEETNADLMRYAGCLGGETTSAYGGRRG | soluble
SPNALDISRTYPTLHVLIQFNHRGLEVRLFRHGQFWAETRADVILRSKTKQVSFLSNGNYPSMDSRAPWNPWKNTYQAVLRAEPCRVTMDIYYKRVRPFRLPLVQKEWPVREENVFGLYRIFNAHYAGYFADLLIHDIETNPAPFMFRPRKQVFQTQGAAVSSMAQTLLPNDLASKAMGSAFTALLDANEDAQKAMKIIKTLSSLSDAWENVKETLNNPEFWKQLLSRCVQLIAGMTIAVMHPDPLTLLCLGTLTAAEITSQTSLCEEIAAKFKTIFITPPPRFPTISLFQQQ | not soluble
SPQRKVANNKQNIEYNDDNHVHHMHSHNPPIDCAILLPSKPRFIFQDVTVFNFNVSGNPSDLNTPVVQFNLSFRNPNANIRIYYDTLDVYAFYGNGSQQIIIPTPMPSTYQGHKEDSVWSPYIPVVPYNALYLDDQHHSRDGNMLMLHLDGRISWLLLGN | soluble
SPVSPAGSHKQQNFGLNNATQPKKSISFFATMKATSVKGYTGANQSRMAVSKTVLIPPELKTVEKPNPNIKTTQVFDINGTDVTPRPLYHPDPLTGTAKPSKLLTSQEGSLGSEFISSYSLYQNTINPSTLGQFTRSVLGSSTVSKSSVSASESIAEDLEEPSYKRERLTSFTDLQVIRAAPEKIVTKEDLEKNIEIILTETETLRFFDLPTVMVSVESEEAEKVTQRNKNYEVLCRNRLGNDLYVERMMQTFNGAPKNKDVQCDKIIMEDKGIMSTAWDLYDSYNAMELVSLSVKQSVVESSSKANVLPKDQDQRLPGSTTEKNSETSSLMDIENVILAKIHEDEEDHSDAILKSDKFHQDLFFMERVLMENIFQPKLAAYRQLPVLKEPEPEEPEDVLESAKHEEVEEESKKEEEEEIHAEESTIPANLERLWSFSCDLTKGLNVSSLAWNKTNPDLLAVGYGHFGFKEQKRGLACCWSIKNPMVTQTRIRSIFIWLLTKFS | soluble
SQAHVVDFELQYREAIDCPCRTFGVDRSIGQYLHILVCIEKIAVYQLHQIGSVLIGFVDTAFDYQRISRIDVGITYNIFEMPLGIIDPILQKQIMLDRLRP | not soluble
SQAPHKEHLYKLLVIGDLGVGKTSIIKRYVHQNFSSHYRATIGVDFALKVLHWDPETVVRLQLWDIAGQERFGNMTRVYYREAMGAFIVFDVTRPATFEAVAKWKNDLDSKLSLPNGKPVSVVLLANKCDQGKDVLMNNGLKMDQFCKEHGFVGWFETSAKENINIDEASRCLVKHILANECDLMESIEPDVVKPHLTSTKVASCSGCAKS | soluble
